Here are results for two molecules from patent publication US20260297200 (published 2026).

One assay addresses MET-huFc (human). Briefly: ELISA. (In general: An ELISA detects its analyte on a solid surface through an enzyme-linked reagent.)
The next assay concerns the target EGFR-moFc S442R (human). Briefly: ELISA.

B1: eIg 1+1 H10x5D5 MET arm (antibody, V domains shown)
VH: EVQLVESGGGLVQPGGSLRLSCAASGYTFTSYWLHWVRQAPGKGLEWVGMIDPSNSDTRFNPNFKDRFTISADTSKNTAYLQMNSLRAEDTAVYYCATYRSYVTPLDYWGQGTLVTVSS
VL: DIQMTQSPSSLSASVGDRVTITCKSSQSLLYTSSQKNYLAWYQQKPGKAPKLLIYWASTRESGVPSRFSGSGSGTDFTLTISSLQPEDFATYYCQQYYAYPWTFGQGTKVEIKR
The term EC50 denotes the concentration giving half of the maximal effect. Lower therefore signals a more potent agent. B1: in the assay with MET-huFc, the EC50 was found to be 4.1 nM.

B2: Necitumumab (antibody, V domains shown)
VH: QVQLQESGPGLVKPSQTLSLTCTVSGGSISSGDYYWSWIRQPPGKGLEWIGYIYYSGSTDYNPSLKSRVTMSVDTSKNQFSLKVNSVTAADTAVYYCARVSIFGVGTFDYWGQGTLVTVSS
VL: EIVMTQSPATLSLSPGERATLSCRASQSVSSYLAWYQQKPGQAPRLLIYDASNRATGIPARFSGSGSGTDFTLTISSLEPEDFAVYYCHQYGSTPLTFGGGTKAEIKR
Consider B2, for which the binding result with EGFR-moFc S442R is given as “no binding”.
